In PMC12839305 one finds Kd data, which are given here for one molecule.

In this assay the target is T1, RVFV glycoprotein Gn head domain (154–469 aa) (Rift Valley fever virus), P21401.
T1 chain: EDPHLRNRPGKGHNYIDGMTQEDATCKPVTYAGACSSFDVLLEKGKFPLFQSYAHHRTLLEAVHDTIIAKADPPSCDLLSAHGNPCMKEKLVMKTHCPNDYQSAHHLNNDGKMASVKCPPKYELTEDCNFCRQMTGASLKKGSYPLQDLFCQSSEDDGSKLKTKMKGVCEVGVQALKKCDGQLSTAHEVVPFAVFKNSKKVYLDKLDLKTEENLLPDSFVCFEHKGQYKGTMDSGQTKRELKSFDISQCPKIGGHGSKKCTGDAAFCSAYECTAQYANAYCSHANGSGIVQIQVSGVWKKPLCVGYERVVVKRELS
Briefly: BLI. Particulars: modification not given.

B1: 23-Fc (peptide)
chain: HVCLPSQFKCTNTNRCIPGIFRCNGQDNCGDGEDERDCPE
Regarding B1, the Kd stood at 260 nM.

For orientation: Kd means the concentration at which binding is half-saturated.
